From patent US20210301349A1, “COMPOSITIONS AND METHODS FOR TREATING A TUMOR SUPPRESSOR DEFICIENT CANCER” (BETH ISRAEL DEACONESS MEDICAL CENTER, INC., priority 2016, published 2021)

B1: CXCL17: recombinant mouse CXCL17 (BioLegend #585402), chemokine (protein, UniProt Q5UW37 23-119, looked up)
C-X-C motif chemokine 17: SPNPGVARSHGDQHLAPRRWLLEGGQECECKDWFLQAPKRKATAVLGPPRKQCPCDHVKGREKKNRHQKHHRKSQRPSRACQQFLKRCHLASFALPL
B2: CXCL5: recombinant mouse CXCL5 (BioLegend #573302), chemokine (protein, UniProt P50228 41-132, looked up)
C-X-C motif chemokine 5: APSSVIAATELRCVCLTVTPKINPKLIANLEVIPAGPQCPTVEVIAKLKNQKEVCLDPEAPVIKKIIQKILGSDKKKAKRNALAVERTASVQ

Tests used:
prostate cancer = conditions: phase III clinical trial in prostate cancer; cited from earlier work
[1] = tested on: monocytes isolated from the bone marrow of healthy mice; test: Transwell migration assay with recombinant proteins, monocytes; assay type: cell-based, mouse; conditions: increasing concentration of recombinant protein in bottom well
Excerpt: (§1) Gr1+ cells and monocytes were isolated from the bone marrow (tibias and femurs) of C57BL/6 wild type, 3 months old mice using the MACS Myltenyi Biotec Cell Isolation system according to the manufacturer's instruction. For monocytes isolation the Monocyte Isolation Kit (BM) (Miltenyi 130-100-629) was used, whereas Gr1 positive cells were isolated using the antibody Anti-Gr-1-Biotin, clone RB6-8C5 (Miltenyi 130-101-894). Red blood cells were lysed with the ACK lysis buffer (ThermoFisher Scientific A1049201). Total bone marrow cells and Gr1+ cells were cultured for 4 days. Briefly, 40 ng/ml GM-CSF (PeproTech #315-03) and 40 ng/ml IL-6 (PeproTech #216-16) were added to the control medium RPMI 1640 (ThermoFisher Scientific 11875-093), supplemented with penicillin-streptomycin, 10% FBS, 10 mM HEPES, 20 μM 2-Mercaptoethanol. Either recombinant mouse CXCL5 (BioLegend #573302) or recombinant mouse CXCL17 (BioLegend #585402) was added at the beginning of the experiment (200 nM). For the migration assay 2.5×10^5 MACS sorted cells were resuspended in 100 μL of either RPMI 1640 control medium or organoid complete medium and placed on the upper well of the transwell system (5 μm, Corning #160241). […] The migration of cells was quantified by flow cytometry, 15 seconds acquisition time, using BD LSR II flow cytometer.

[2] = tested on: whole bone marrow (BM) mouse cells and Gr1+ cells; test: 4 day culture of bone marrow and Gr1+ cells in GM-CSF, IL-6 medium plus recombinant chemokine; assay type: cell-based; conditions: 4 days culture with IL6 and GM-CSF, recombinant chemokine 200 nM
Excerpt: Gr1+ cells and monocytes were isolated from the bone marrow (tibias and femurs) of C57BL/6 wild type, 3 months old mice using the MACS Myltenyi Biotec Cell Isolation system according to the manufacturer's instruction. For monocytes isolation the Monocyte Isolation Kit (BM) (Miltenyi 130-100-629) was used, whereas Gr1 positive cells were isolated using the antibody Anti-Gr-1-Biotin, clone RB6-8C5 (Miltenyi 130-101-894). Red blood cells were lysed with the ACK lysis buffer (ThermoFisher Scientific A1049201). Total bone marrow cells and Gr1+ cells were cultured for 4 days. Briefly, 40 ng/ml GM-CSF (PeproTech #315-03) and 40 ng/ml IL-6 (PeproTech #216-16) were added to the control medium RPMI 1640 (ThermoFisher Scientific 11875-093), supplemented with penicillin-streptomycin, 10% FBS, 10 mM HEPES, 20 μM 2-Mercaptoethanol. Either recombinant mouse CXCL5 (BioLegend #573302) or recombinant mouse CXCL17 (BioLegend #585402) was added at the beginning of the experiment (200 nM). For the migration assay 2.5×10^5 MACS sorted cells were resuspended in 100 μL of either RPMI 1640 control medium or organoid complete medium and placed on the upper well of the transwell system (5 μm, Corning #160241). The migration assay with recombinant proteins was performed by adding to the bottom well 600 μL of RMPI1640 control medium supplemented with the indicated amount of either CXCL5 or CXCL17. The migration assay with organoid conditioned medium was performed by adding to the bottom well 600 μL of medium collected over 5 days of culture of prostate organoids with the indicated genotype. The migration of cells was quantified by flow cytometry, 15 seconds acquisition time, using BD LSR II flow cytometer.
For Flow Cytometry, spleen and lymph node single cell suspensions were prepared by mashing the tissue in 2% FBS/PBS. Tumor and control prostate tissue (from anterior lobes) single cell suspension was prepared by mincing the tumor and digestion with Collagenase Type I (Life Technologies #17018029) in 10% DMEM (GIBCO) for 1 hr at 37° C. Cell suspensions were passed through […] cell strainers to obtain single cell suspensions. Blood samples and single cell suspensions were re-suspended in 1-2 ml of ACK red cell lysis buffer (GIBCO) and lysed on ice for 1 minute. Cell suspensions were then washed in 2% FBS/PBS, centrifuged and re-suspended in 0.5-1 ml of 2% FBS/PBS. […] All staining mixtures were analyzed on a BD LSR II flow cytometer (Becton Dickinson). Resulting profiles were further processed and analyzed using the FlowJo 8.7 software.
Microarray analysis and gene set enrichment analysis on mouse tumor tissue were conducted and analyzed as previously described by Palucka, A. K. et al. (Palucka, A. K. et al. Cell 164, 1233-1247 (2016)). […]

[3] = tested on: Gr1+ cells isolated from the bone marrow of healthy mice; test: Transwell migration assay with recombinant proteins, Gr1+ cells; assay type: cell-based, mouse; conditions: increasing concentration of recombinant protein in bottom well
Excerpt: as §1

Molecule | survival benefit (prostate cancer) | migration of monocytes (Ly6G−/Ly6C^hi cells) [1] | expression of the Ly6C and Ly6G markers and expression profile of the genes tested [2] | expression of the Ly6C and Ly6G markers and expression profile of the genes tested ([2]; listed as recombinant CXCL17) | migration of Gr1+ cells [3] | expression of the Ly6C and Ly6G markers and expression profile of the genes tested ([2]; listed as recombinant CXCL5)
COc1cccc2c1c(O)c(C(=O)N(C)c1ccc(C(F)(F)F)cc1)c(=O)n2C [Tasquinimod] | failed to show a clear survival benefit |  |  |  |  | 
B1 |  | chemoattractants | did not observe any significant difference | did not show significant changes |  | 
B2 |  |  | did not observe any significant difference |  | strongly induced the migration | did not show significant changes
